B1: LINE1-full (parent)
chain: UACGUAGGUGGUUUUCCCCUGAUAGUGCUAAGGGGGCCUGGAAGUUUGGACUGGGCAGAGCUCAACACAGCGUGGCAAAGUGGCUGUGGCUAGACUGCCUCUCUGGAUUCCUCGUCACUCAGCAGGGCAUCUCUGAGAGAAAUGCC

Variants of: B1
Test: self-cleavage, relative activity (ratio to wild type); higher = more cleavage; in vitro, sequencing; the parent is a self-cleaving ribozyme

Row | Variant | self-cleavage
1 | G36A U52A | 1.21
2 | A117G A140G | 1.48
3 | C37G U91C | 0.32
4 | U29G G137U | 1.04
5 | A77U A124G | 0.79
6 | G7C G48A | 0.92
7 | A57U C99U | 0.04
8 | G32A A50G | 0.93
9 | U20A U96A | 0.05
10 | G70A A136G | 0.11
11 | A31G U108C | 1.26
12 | U26G G55A | 0.21
13 | C19U U108C | 1.26
14 | G58A U109A | 0.04
15 | A31U U45G | 1.5
16 | A57G U85A | 0.13
17 | A2U A121G | 1.53
18 | A64U U112A | 0.47
19 | U47C A78C | 1.96
20 | A31G A92U | 0.91
21 | G35A A69G | 0.21
22 | U14C G86U | 0.08
23 | A42G A79U | 1.57
24 | A107C U130C | 0

Row | Variant | self-cleavage
25 | U104A C120U | 1.65
26 | A77G U132C | 2.73
27 | U29C A65C | 0.1
28 | U1C U100A | 0.69
29 | U39C A77G | 1.93
30 | U85C A94G | 0.07
31 | A69G U130A | 0.39
32 | U5C A92G | 0
33 | U132A A136G | 1.79
34 | U52A A92U | 0.86
35 | U20A C63U | 0.45
36 | A65G A77G | 0.04
37 | U39C U115A | 1.05
38 | U13C U132C | 1.2
39 | C61U U85A | 0.03
40 | G60U A121C | 0.03
41 | U20C U85A | 0.11
42 | A50C A57U | 0
43 | U115A A142G | 0.9
44 | A22G A64G | 0.34
45 | A64U C71U | 0.37
46 | A121G G144A | 1.91
47 | U115G A141G | 1.25
48 | A42C G54A | 0.13

Row | Variant | self-cleavage
49 | U39A C128G | 1.62
50 | G10A U52C | 0.62
51 | A30U U112C | 1.08
52 | G33U A140G | 1.83
53 | A59G G60C | 0.07
54 | U115G A129G | 1.16
55 | G44A A129U | 1.43
56 | A67U C84U | 0.02
57 | U14C C51U | 0.71
58 | A2G U14C | 0.93
59 | A31U A57G | 1
60 | U52C A140U | 1.15
61 | A24G G33C | 0.8
62 | A59G U115C | 0.07
63 | U73A A129U | 1.7
64 | U46A A69U | 0.05
65 | U73A A94U | 0.27
66 | U20C G41A | 1.27
67 | U45C C84A | 0.09
68 | C71U U81A | 0.88
69 | G93U A141G | 0.03
70 | C110U | 1.51
71 | U14C C113U | 0.82
72 | A24U U62C | 0.08

Row | Variant | self-cleavage
73 | G11A U119A | 0.93
74 | A92G A121U | 0.09
75 | U14A A31U | 0.84
76 | U108A A124G | 1.55
77 | C17U A30G | 1.44
78 | U85A C116U | 0.11
79 | U85A C116A | 0
80 | A121G G127A | 1.74
81 | A79G U132A | 1.25
82 | U73C U109C | 0.31
83 | U96C U119G | 0.13
84 | U102G U143A | 0.84
85 | U12C A92G | 0.09
86 | U12C A78G | 0.95
87 | A79U U130C | 2.63
88 | A43U A138G | 0.83
89 | A59G A136U | 0.09
90 | C28U U130C | 0.7
91 | U1A A92U | 0.32
92 | A31G A43G | 0.98
93 | A57U C90U | 0.02
94 | U102C U134A | 1.59
95 | A2G U12G | 0.95
96 | A59G U85A | 0.04

Row | Variant | self-cleavage
97 | G127C U143C | 1.61
98 | C61U A94G | 0.06
99 | A94G A107U | 0.3
100 | A57U A78U | 0.03
101 | G4A A59G | 0.12
102 | A67U C71U | 0.02
103 | U26A U102A | 1.01
104 | G86A U119C | 0.07
105 | C90G A92G | 0.03
106 | G25U C123A | 0.95
107 | U47A U112A | 0.7
108 | U39G U73A | 1.88
109 | U47A U109A | 1.74
110 | A138G G144A | 0.14
111 | A6G A43G | 1.35
112 | G35A U85C | 0.09
113 | U1C A67C | 0.09
114 | C71U C101A | 1.14
115 | C118U C131U | 1.66
116 | A94C A129G | 0
117 | U20C U130A | 1.65
118 | A22G G48U | 1.05
119 | G54A C84U | 0.08
120 | U87G A94G | 0

Row | Variant | self-cleavage
121 | U14A A67U | 0.1
122 | A30U U62C | 0.07
123 | G33A A67G | 0.63
124 | U81A A117U | 1.94
125 | A31U U109A | 1.69
126 | U104C A140G | 1.67
127 | A92C U132C | 0
128 | U1A U26G | 1.19
129 | U73C U100C | 1.99
130 | C84U A136U | 0.13
131 | U46C A121U | 1.25
132 | C61U U108C | 0.01
133 | U100A C103U | 0.44
134 | U39A U62A | 0.02
135 | C18U U39C | 0.82
136 | G127C C145U | 1.01
137 | U9C G106A | 1.71
138 | U45C A59U | 1.04
139 | C18U U143C | 1.11
140 | C38A U39C | 1.77
141 | U9C U81G | 1.31
142 | A24G U108A | 1.49
143 | U5C A129U | 1.05
144 | G33A U100C | 1.28

Row | Variant | self-cleavage
145 | U39A G53A | 1.33
146 | U96A A140U | 0
147 | A64G U87A | 0.07
148 | G10A A78U | 1.83
149 | A43G G70U | 0.15
150 | A50U U132C | 1.05
151 | G75C U109C | 0.62
152 | A107C U115C | 1.38
153 | A77G C145U | 2.12
154 | U81A C145A | 2.25
155 | A64G A77G | 0.42
156 | U20G G74A | 1.29
157 | A6G A136G | 1.17
158 | U73C G86A | 0.14
159 | U20A C111A | 1.19
160 | A78C U91C | 1.24
161 | U130C U132C | 1.29
162 | A6U A43G | 1.01
163 | A57C A136G | 0.05
164 | U23G | 1.18
165 | G10C C146U | 1.91
166 | G105U A136G | 1.47
167 | C38U A57U | 0.15
